As a reminder, the Kd is the free concentration of one partner at which half of the binding sites on the other are occupied at equilibrium, for simple one-to-one binding. Read a high Kd as a looser complex.

Data on 22 molecules can be found in patent publication US12552834 (MIT, dated 2026).

Where two headings read alike, the source gives them in different places.

The target in assay [1] is T1, ENAH EVH1 domain (monomeric, wild type) (human, UniProt Q03173 1-111 (mouse entry)).
T1 construct: ENAH residue numbers in the text count from the Met at position 25 of this entry; also called ENAH EVH1 WT; Mena EVH1 WT
T1 sequence (Q03173 other isoform, or with tags, fused parts or gaps limits assumed): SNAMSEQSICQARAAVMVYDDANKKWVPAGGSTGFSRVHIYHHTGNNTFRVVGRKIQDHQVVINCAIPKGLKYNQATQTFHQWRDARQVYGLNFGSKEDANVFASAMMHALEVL
The experiment in a line: BLI. (In BLI a coated tip is dipped into the sample, and binding shifts an interference pattern.)
Procedure: (§1) All BLI experiments were performed with 2 replicates on an Octet Red96 instrument (ForteBio). […] The loaded tips were immersed in a solution of ENAH EVH1 domain at a relevant dilution series in BLI buffer at an orbital shake speed of 1000 rpm and run until the binding signal plateaued. ENAH-bound tips were subsequently placed into BLI buffer only for dissociation and run until the binding signal plateaued. K_D values were obtained through steady state analysis. […] The association phases were then fit to a one-phase binding model in Prism and the equilibrium steady-state binding signal values from that fit were plotted against ENAH concentration and fit to a single-site specific binding model in Prism to obtain dissociation constants. Errors reported are the standard deviation of two replicates.

The target of assay [2] is T1, ENAH EVH1 domain (monomeric, wild type). The experiment in a line: BLI, steady state; SUMO-peptide immobilised, EVH1 monomer in solution.
Procedure: as §1
Assay [3] addresses T2, ENAH EVH1 domain with Arg47 mutated to Ala (human, UniProt Q03173 1-111 (mouse entry)).
T2 construct: also called ENAH R47A; ENAH EVH1 R47A
The assay is described as above.
Procedure: as §1

The target in assay [4] is T1, ENAH EVH1 domain (monomeric, wild type). Described as above. The source holds these as a separate data set.
Procedure: as §1
The target is the same in assay [5]. The description is as above. This is another data set of the same source.
Procedure: as §1

T2 sequence (Q03173 other isoform, or with tags, fused parts or gaps limits assumed, stated change not applied): as the sequence (Q03173 other isoform, or with tags, fused parts or gaps limits assumed) above, with R50A counted along it

B1: LPP Minimal peptide (peptide)
peptide: MAGGLNDIFEAQKIEWHEDTGGSSHHHHHHGSGSGSDSEVNQEAKPEVKPEVKPETHINLKVSDGSSEIFFKIKKTTPLRRLMEAFAKRQGKEMDSLTFLYDGIEIQADQTPEDLDMEDNDIIEAHREQIGGSGSGGDFLPPPPPPLGGGSGSGGGSGSFPPPPPL
modifications: biotinylated (BAP tag)
notes: Engineered variant, tested as a SUMO fusion
For B1, the “fold reduction in affinity relative to the LPP 36-mer” value in assay [1] is about 4 fold. For the same molecule, the Kd in assay [2] was found to be 15.8 µM; in assay [3] it was 124 µM.

B2: ABI1 a peptide (peptide)
peptide: MAGGLNDIFEAQKIEWHEDTGGSSHHHHHHGSGSGSDSEVNQEAKPEVKPEVKPETHINLKVSDGSSEIFFKIKKTTPLRRLMEAFAKRQGKEMDSLTFLYDGIEIQADQTPEDLDMEDNDIIEAHREQIGGSGSGFDDFPPPPPPPPVDYED
modifications: biotinylated (BAP tag)
notes: ABI1 truncation, tested as a SUMO fusion
The molecule B2 yielded a Kd in assay [4] of 5.21 µM. In other words, the single-digit micromolar range.

B3: SYNPO2 36-mer peptide (peptide)
peptide: MAGGLNDIFEAQKIEWHEDTGGSSHHHHHHGSGSGSDSEVNQEAKPEVKPEVKPETHINLKVSDGSSEIFFKIKKTTPLRRLMEAFAKRQGKEMDSLTFLYDGIEIQADQTPEDLDMEDNDIIEAHREQIGGSGSGKSPIADFPAPPPYSAVTPPPDAFSRGVSSPIAGPAQ
modifications: biotinylated (BAP tag)
notes: Tested as a biotinylated BAP-6xHis-SUMO-peptide fusion
For B3, the Kd in assay [5] worked out at 52.1 µM.

B4: FYB1 36-mer peptide (peptide)
peptide: MAGGLNDIFEAQKIEWHEDTGGSSHHHHHHGSGSGSDSEVNQEAKPEVKPEVKPETHINLKVSDGSSEIFFKIKKTTPLRRLMEAFAKRQGKEMDSLTFLYDGIEIQADQTPEDLDMEDNDIIEAHREQIGGSGSGSGSGGIFPPPPDDDIYDGIEEEDADDGFPAPPKQLD
modifications: biotinylated (BAP tag)
notes: as for B3
The molecule B4 registered a dissociation constant (Kd) in assay [5] of 24.3 µM.

B5: LPP Duplicated peptide (peptide)
peptide: MAGGLNDIFEAQKIEWHEDTGGSSHHHHHHGSGSGSDSEVNQEAKPEVKPEVKPETHINLKVSDGSSEIFFKIKKTTPLRRLMEAFAKRQGKEMDSLTFLYDGIEIQADQTPEDLDMEDNDIIEAHREQIGGSGSGKQPGGEGDFLPPPPPPLDDSSALPSISGNDDSSALPSISGNFPPPPPL
modifications: biotinylated (BAP tag)
notes: as for B1
For the molecule B5, the dissociation constant Kd in assay [2] turned out to be 6.66 µM; in assay [3] it was 54.2 µM.

B6: NHSL1 Duplicated peptide (peptide)
peptide: MAGGLNDIFEAQKIEWHEDTGGSSHHHHHHGSGSGSDSEVNQEAKPEVKPEVKPETHINLKVSDGSSEIFFKIKKTTPLRRLMEAFAKRQGKEMDSLTFLYDGIEIQADQTPEDLDMEDNDIIEAHREQIGGSGSGADRSPFLPPPPPVTDCSQGSPLPHSPVPVTDCSQGSPLPHSPVFPPPPPEAL
modifications: biotinylated (BAP tag)
notes: as for B1
Regarding B6, the Kd is 18.4 µM in assay [2] and 70 µM in assay [3].

B7: NHSL1 FP4 2 peptide (peptide)
peptide: MAGGLNDIFEAQKIEWHEDTGGSSHHHHHHGSGSGSDSEVNQEAKPEVKPEVKPETHINLKVSDGSSEIFFKIKKTTPLRRLMEAFAKRQGKEMDSLTFLYDGIEIQADQTPEDLDMEDNDIIEAHREQIGGSGSGPVTDCSQGSPLPHSPVFPPPPPEAL
modifications: biotinylated (BAP tag)
notes: Truncation of the NHSL1 36mer that keeps the second FP4 motif, tested as a SUMO fusion
B7: the Kd amounted to 24.4 µM in assay [2] and 51 µM in assay [3].

B8: FDDFP8 peptide (peptide)
peptide: MAGGLNDIFEAQKIEWHEDTGGSSHHHHHHGSGSGSDSEVNQEAKPEVKPEVKPETHINLKVSDGSSEIFFKIKKTTPLRRLMEAFAKRQGKEMDSLTFLYDGIEIQADQTPEDLDMEDNDIIEAHREQIGGSGSGFDDFPPPPPPPP
modifications: biotinylated (BAP tag)
notes: as for B2
B8: the “fold decrease in affinity on truncation of the flank” value in assay [1] was determined as 2.5 fold. Binding in assay [4] was characterised by a dissociation constant (Kd) of 10.1 µM.

B9: TNK2 36-mer peptide (peptide)
peptide: MAGGLNDIFEAQKIEWHEDTGGSSHHHHHHGSGSGSDSEVNQEAKPEVKPEVKPETHINLKVSDGSSEIFFKIKKTTPLRRLMEAFAKRQGKEMDSLTFLYDGIEIQADQTPEDLDMEDNDIIEAHREQIGGSGSGTPVVDWDARPLPPPPAYDDVAQDEDDFEICSINSTL
modifications: biotinylated (BAP tag)
notes: as for B3
B9 yielded a Kd in assay [5] of 21.2 µM.

B10: NHSL1 FP4 1 peptide (peptide)
peptide: MAGGLNDIFEAQKIEWHEDTGGSSHHHHHHGSGSGSDSEVNQEAKPEVKPEVKPETHINLKVSDGSSEIFFKIKKTTPLRRLMEAFAKRQGKEMDSLTFLYDGIEIQADQTPEDLDMEDNDIIEAHREQIGGSGSGADRSPFLPPPPPVTDCSQGSPLPHSPV
modifications: biotinylated (BAP tag)
notes: Truncation of the NHSL1 36mer that keeps the first FP4 motif, tested as a SUMO fusion
As for B10, the Kd is 48.7 µM in assay [2] and 99.1 µM in assay [3].

B11: Minimum General peptide (peptide)
peptide: MAGGLNDIFEAQKIEWHEDTGGSSHHHHHHGSGSGSDSEVNQEAKPEVKPEVKPETHINLKVSDGSSEIFFKIKKTTPLRRLMEAFAKRQGKEMDSLTFLYDGIEIQADQTPEDLDMEDNDIIEAHREQIGGSGSGDFLPPPPGGGGGGSGSGGGSGSFPPPPGG
modifications: biotinylated (BAP tag)
notes: Engineered peptide, tested as a SUMO fusion
With B11, the Kd in assay [2] was found to be 92.6 µM; in assay [3], 86.9 µM.

B12: SHROOM3 36-mer peptide (peptide)
peptide: MAGGLNDIFEAQKIEWHEDTGGSSHHHHHHGSGSGSDSEVNQEAKPEVKPEVKPETHINLKVSDGSSEIFFKIKKTTPLRRLMEAFAKRQGKEMDSLTFLYDGIEIQADQTPEDLDMEDNDIIEAHREQIGGSGSGVYSMDDFPPPPPHTVCEAQLDSEDPEGPRPSFNKLS
modifications: biotinylated (BAP tag)
notes: as for B3
For B12, the Kd in assay [5] stood at 9.3 µM.

B13: LPP FP4 1 peptide (peptide)
peptide: MAGGLNDIFEAQKIEWHEDTGGSSHHHHHHGSGSGSDSEVNQEAKPEVKPEVKPETHINLKVSDGSSEIFFKIKKTTPLRRLMEAFAKRQGKEMDSLTFLYDGIEIQADQTPEDLDMEDNDIIEAHREQIGGSGSGKQPGGEGDFLPPPPPPLDDSSALPSISGN
modifications: biotinylated (BAP tag)
notes: Truncation of the LPP 36mer that keeps the first FP4 motif, tested as a SUMO fusion
B13: the values for the Kd in assay [2] and in assay [3] were 12.4 µM and 61.3 µM, respectively.

B14: TJAP1 36-mer peptide (peptide)
peptide: MAGGLNDIFEAQKIEWHEDTGGSSHHHHHHGSGSGSDSEVNQEAKPEVKPEVKPETHINLKVSDGSSEIFFKIKKTTPLRRLMEAFAKRQGKEMDSLTFLYDGIEIQADQTPEDLDMEDNDIIEAHREQIGGSGSGPEEELPLPAFEKLNPYPTPSPPHPLYPGRRVIEFSE
modifications: biotinylated (BAP tag)
notes: as for B3
The molecule B14 yielded a Kd in assay [5] of 23.9 µM.

B15: FBLIM1 36-mer peptide (peptide)
peptide: MAGGLNDIFEAQKIEWHEDTGGSSHHHHHHGSGSGSDSEVNQEAKPEVKPEVKPETHINLKVSDGSSEIFFKIKKTTPLRRLMEAFAKRQGKEMDSLTFLYDGIEIQADQTPEDLDMEDNDIIEAHREQIGGSGSGPPVLDGEDVLPDLDLLPPPPPPPPVLLPSEEEAPAP
modifications: biotinylated (BAP tag)
notes: as for B3
B15 registered a Kd in assay [5] of 16 µM.

B16: LPP FP4 2 peptide (peptide)
peptide: MAGGLNDIFEAQKIEWHEDTGGSSHHHHHHGSGSGSDSEVNQEAKPEVKPEVKPETHINLKVSDGSSEIFFKIKKTTPLRRLMEAFAKRQGKEMDSLTFLYDGIEIQADQTPEDLDMEDNDIIEAHREQIGGSGSGPPLDDSSALPSISGNFPPPPPL
modifications: biotinylated (BAP tag)
notes: Truncation of the LPP 36mer that keeps the second FP4 motif, tested as a SUMO fusion
With B16, the Kd in assay [2] came to 28.3 µM; in assay [3] it was 75.2 µM.

B17: KIAA1522 36-mer peptide (peptide)
peptide: MAGGLNDIFEAQKIEWHEDTGGSSHHHHHHGSGSGSDSEVNQEAKPEVKPEVKPETHINLKVSDGSSEIFFKIKKTTPLRRLMEAFAKRQGKEMDSLTFLYDGIEIQADQTPEDLDMEDNDIIEAHREQIGGSGSGPPAPEEQDLSMADFPPPEEAFFSVASPEPAGPSGSP
modifications: biotinylated (BAP tag)
notes: Tested as a biotinylated BAP-6xHis-SUMO-peptide fusion; also called KIAAA1522
In assay [5], B17 showed a Kd of 14 µM. This counts as double-digit micromolar.

B18: FHOD1 peptide (peptide)
peptide: MAGGLNDIFEAQKIEWHEDTGGSSHHHHHHGSGSGSDSEVNQEAKPEVKPEVKPETHINLKVSDGSSEIFFKIKKTTPLRRLMEAFAKRQGKEMDSLTFLYDGIEIQADQTPEDLDMEDNDIIEAHREQIGGSGSGSVPPPPPLPPPPPIKGPFPPPPPLPLAAPLPHSVPD
modifications: biotinylated (BAP tag)
notes: as for B3
In assay [5], B18 showed a Kd of 50.4 µM.

B19: FP8 peptide (FPPPPPPPP) (peptide)
peptide: MAGGLNDIFEAQKIEWHEDTGGSSHHHHHHGSGSGSDSEVNQEAKPEVKPEVKPETHINLKVSDGSSEIFFKIKKTTPLRRLMEAFAKRQGKEMDSLTFLYDGIEIQADQTPEDLDMEDNDIIEAHREQIGGSGSGFPPPPPPPP
modifications: biotinylated (BAP tag)
notes: as for B2
As to B19, the “fold decrease in affinity on truncation of the flank” value in assay [1] was determined as 3 fold. Besides, in assay [4], binding was put at a Kd of 28.5 µM.

B20: FP4S4 peptide (FPPPPSSSS) (peptide)
peptide: MAGGLNDIFEAQKIEWHEDTGGSSHHHHHHGSGSGSDSEVNQEAKPEVKPEVKPETHINLKVSDGSSEIFFKIKKTTPLRRLMEAFAKRQGKEMDSLTFLYDGIEIQADQTPEDLDMEDNDIIEAHREQIGGSGSGFPPPPSSSS
modifications: biotinylated (BAP tag)
notes: Tested as a SUMO fusion
Take B20: in assay [1], the “fold reduction in affinity against …” value is about 4 fold. In assay [4], this molecule gave a Kd of 114 µM.

B21: NUTM2E 36-mer peptide (peptide)
peptide: MAGGLNDIFEAQKIEWHEDTGGSSHHHHHHGSGSGSDSEVNQEAKPEVKPEVKPETHINLKVSDGSSEIFFKIKKTTPLRRLMEAFAKRQGKEMDSLTFLYDGIEIQADQTPEDLDMEDNDIIEAHREQIGGSGSGVVPVMAAQVVGGTQACEGGWSQGLPLPPPPPPAAQL
modifications: biotinylated (BAP tag)
notes: as for B3
Turning to B21, the Kd in assay [5] is 33.9 µM.

B22: ABI3 36-mer peptide (peptide)
peptide: MAGGLNDIFEAQKIEWHEDTGGSSHHHHHHGSGSGSDSEVNQEAKPEVKPEVKPETHINLKVSDGSSEIFFKIKKTTPLRRLMEAFAKRQGKEMDSLTFLYDGIEIQADQTPEDLDMEDNDIIEAHREQIGGSGSGSPPPPDEELPLPLDLPPPPPLDGDELGLPPPPPGFG
modifications: biotinylated (BAP tag)
notes: as for B3
In turn, B22 showed a Kd in assay [5] of 13.6 µM.
